Experimental data from patent US20210246166A1 (Bayer, published 2021).
Numbered stars: 1 amine (or outer) side, 2 acyl side, 3 side chain; on linkers, the order of the positions; unused ones are H or OH. Bridge positions count the residues as written; N and C are the ends. Square brackets hold non-standard residues; d marks the D form. Primed or numbered codes have the meaning given here. Ends that are not written are not given here. * marks the point of attachment. X12 = (S)‑(trifluoromethyl)‑L‑cysteine, O=C([C@H](CSC(F)(F)F)N[*:1])[*:2]; Tranexamic″ = tranexamic acid, NC[C@H]1CC[C@@H](C(=O)*)CC1; Oic = O=C(O)[C@@H]1C[C@@H]2CCCC[C@@H]2N1; tBuAla = CC(C)(C)C[C@H](N)C(=O)O; 4Pal = N[C@@H](Cc1ccncc1)C(=O)O; Gly(cBu) = N[C@H](C(=O)O)C1CCC1; Chg = N[C@H](C(=O)O)C1CCCCC1; Pen = CC(C)(S)[C@H](N)C(=O)O; 3Amb = NCc1cccc(C(=O)O)c1; NMeC = CN[C@@H](CS)C(=O)O; Nva = CCC[C@H](N)C(=O)O; PEG2 = NCCOCCOCCC(=O)O; Sar = CNCC(=O)O

B1: ((N-Me)G)-IC+SRSLP-(Oic)-I-(Pen)+IPE-OH (peptide)
peptide: [Sar]ICSRSLP[Oic]I[Pen]IPE-OH
modifications: disulfide 3-11; N-terminus assumed
SMILES: CC[C@H](C)[C@H](NC(=O)CNC)C(=O)N[C@H]1CSSC(C)(C)[C@@H](C(=O)N[C@H](C(=O)N2CCC[C@H]2C(=O)N[C@@H](CCC(=O)O)C(=O)O)[C@@H](C)CC)NC(=O)[C@H]([C@@H](C)CC)NC(=O)[C@@H]2C[C@@H]3CCCC[C@@H]3N2C(=O)[C@@H]2CCCN2C(=O)[C@H](CC(C)C)NC(=O)[C@H](CO)NC(=O)[C@H](CCCNC(=N)N)NC(=O)[C@H](CO)NC1=O
B2: ((N-Me)G)-GIC+SRS-((tBu)A)-PPI-(Pen)+IPD-NH2 (peptide)
peptide: [Sar]GICSRS[tBuAla]PPI[Pen]IPD-NH2
modifications: disulfide 4-12; N-terminus assumed
SMILES: CC[C@H](C)[C@H](NC(=O)CNC(=O)CNC)C(=O)N[C@H]1CSSC(C)(C)[C@@H](C(=O)N[C@H](C(=O)N2CCC[C@H]2C(=O)N[C@@H](CC(=O)O)C(N)=O)[C@@H](C)CC)NC(=O)[C@H]([C@@H](C)CC)NC(=O)[C@@H]2CCCN2C(=O)[C@@H]2CCCN2C(=O)[C@H](CC(C)(C)C)NC(=O)[C@H](CO)NC(=O)[C@H](CCCNC(=N)N)NC(=O)[C@H](CO)NC1=O
B3: ((N-Me)G)-IC+SRS-((S)-(trifluoromethyl)-L-cysteine)-PPI-(Pen)+IP-NH2 (peptide)
peptide: [Sar]ICSRS[X12]PPI[Pen]IP-NH2
modifications: disulfide 3-11; N-terminus assumed
SMILES: CC[C@H](C)[C@H](NC(=O)CNC)C(=O)N[C@H]1CSSC(C)(C)[C@@H](C(=O)N[C@H](C(=O)N2CCC[C@H]2C(N)=O)[C@@H](C)CC)NC(=O)[C@H]([C@@H](C)CC)NC(=O)[C@@H]2CCCN2C(=O)[C@@H]2CCCN2C(=O)[C@H](CSC(F)(F)F)NC(=O)[C@H](CO)NC(=O)[C@H](CCCNC(=N)N)NC(=O)[C@H](CO)NC1=O
B4: (Tranexamic)-IC+SRS-((tBu)A)-PPI-(Pen)+IP-(PEG1(10 atoms))-NH2 (peptide)
peptide: {Tranexamic″}-ICSRS[tBuAla]PPI[Pen]IP-{PEG2-NH2}
modifications: disulfide 2-10
SMILES: CC[C@H](C)[C@@H]1NC(=O)[C@@H]2CCCN2C(=O)[C@@H]2CCCN2C(=O)[C@H](CC(C)(C)C)NC(=O)[C@H](CO)NC(=O)[C@H](CCCNC(=N)N)NC(=O)[C@H](CO)NC(=O)[C@@H](NC(=O)[C@@H](NC(=O)[C@H]2CC[C@@H](CN)CC2)[C@@H](C)CC)CSSC(C)(C)[C@@H](C(=O)N[C@H](C(=O)N2CCC[C@H]2C(=O)NCCOCCOCCC(N)=O)[C@@H](C)CC)NC1=O
B5: (3-(Aminomethyl)benzoic acid)-IC+SRS-((tBu)A)-PP-(Pen)+IP-NH2 (peptide)
peptide: [3Amb]ICSRS[tBuAla]PP[Pen]IP-NH2
modifications: disulfide 3-10; N-terminus assumed
SMILES: CC[C@H](C)[C@H](NC(=O)c1cccc(CN)c1)C(=O)N[C@H]1CSSC(C)(C)[C@@H](C(=O)N[C@H](C(=O)N2CCC[C@H]2C(N)=O)[C@@H](C)CC)NC(=O)[C@@H]2CCCN2C(=O)[C@@H]2CCCN2C(=O)[C@H](CC(C)(C)C)NC(=O)[C@H](CO)NC(=O)[C@H](CCCNC(=N)N)NC(=O)[C@H](CO)NC1=O
B6: WIC+SRS-((tBu)A)-PPI-((N-Me)C)+I-NH2 (peptide)
peptide: WICSRS[tBuAla]PPI[NMeC]I-NH2
modifications: disulfide 3-11; N-terminus assumed
SMILES: CC[C@H](C)[C@H](NC(=O)[C@@H]1CSSC[C@H](NC(=O)[C@@H](NC(=O)[C@@H](N)Cc2c[nH]c3ccccc23)[C@@H](C)CC)C(=O)N[C@@H](CO)C(=O)N[C@@H](CCCNC(=N)N)C(=O)N[C@@H](CO)C(=O)N[C@@H](CC(C)(C)C)C(=O)N2CCC[C@H]2C(=O)N2CCC[C@H]2C(=O)N[C@@H]([C@@H](C)CC)C(=O)N1C)C(N)=O
B7: AIC+SRSLP-(Oic)-IC+IPD-NH2 (peptide)
peptide: AICSRSLP[Oic]ICIPD-NH2
modifications: disulfide 3-11; N-terminus assumed
SMILES: CC[C@H](C)[C@H](NC(=O)[C@H](C)N)C(=O)N[C@H]1CSSC[C@@H](C(=O)N[C@H](C(=O)N2CCC[C@H]2C(=O)N[C@@H](CC(=O)O)C(N)=O)[C@@H](C)CC)NC(=O)[C@H]([C@@H](C)CC)NC(=O)[C@@H]2C[C@@H]3CCCC[C@@H]3N2C(=O)[C@@H]2CCCN2C(=O)[C@H](CC(C)C)NC(=O)[C@H](CO)NC(=O)[C@H](CCCNC(=N)N)NC(=O)[C@H](CO)NC1=O
B8: (4-Pal)-IC+SRS-((tBu)A)-PPI-(Pen)+IPD-NH2 (peptide)
peptide: [4Pal]ICSRS[tBuAla]PPI[Pen]IPD-NH2
modifications: disulfide 3-11; N-terminus assumed
SMILES: CC[C@H](C)[C@H](NC(=O)[C@@H](N)Cc1ccncc1)C(=O)N[C@H]1CSSC(C)(C)[C@@H](C(=O)N[C@H](C(=O)N2CCC[C@H]2C(=O)N[C@@H](CC(=O)O)C(N)=O)[C@@H](C)CC)NC(=O)[C@H]([C@@H](C)CC)NC(=O)[C@@H]2CCCN2C(=O)[C@@H]2CCCN2C(=O)[C@H](CC(C)(C)C)NC(=O)[C@H](CO)NC(=O)[C@H](CCCNC(=N)N)NC(=O)[C@H](CO)NC1=O
B9: (Nva)-IC+SRSLPPIC+IPD-NH2 (peptide)
peptide: [Nva]ICSRSLPPICIPD-NH2
modifications: disulfide 3-11; N-terminus assumed
SMILES: CCC[C@H](N)C(=O)N[C@H](C(=O)N[C@H]1CSSC[C@@H](C(=O)N[C@H](C(=O)N2CCC[C@H]2C(=O)N[C@@H](CC(=O)O)C(N)=O)[C@@H](C)CC)NC(=O)[C@H]([C@@H](C)CC)NC(=O)[C@@H]2CCCN2C(=O)[C@@H]2CCCN2C(=O)[C@H](CC(C)C)NC(=O)[C@H](CO)NC(=O)[C@H](CCCNC(=N)N)NC(=O)[C@H](CO)NC1=O)[C@@H](C)CC
B10: AIC+SRSLPPIC+(Cbg)-PD-NH2 (peptide)
peptide: AICSRSLPPIC[Gly(cBu)]PD-NH2
modifications: disulfide 3-11; N-terminus assumed
SMILES: CC[C@H](C)[C@H](NC(=O)[C@H](C)N)C(=O)N[C@H]1CSSC[C@@H](C(=O)N[C@H](C(=O)N2CCC[C@H]2C(=O)N[C@@H](CC(=O)O)C(N)=O)C2CCC2)NC(=O)[C@H]([C@@H](C)CC)NC(=O)[C@@H]2CCCN2C(=O)[C@@H]2CCCN2C(=O)[C@H](CC(C)C)NC(=O)[C@H](CO)NC(=O)[C@H](CCCNC(=N)N)NC(=O)[C@H](CO)NC1=O
B11: AIC+SRSLPP-(Chg)-C+IPD-OH (peptide)
peptide: AICSRSLPP[Chg]CIPD-OH
modifications: disulfide 3-11; N-terminus assumed
SMILES: CC[C@H](C)[C@H](NC(=O)[C@H](C)N)C(=O)N[C@H]1CSSC[C@@H](C(=O)N[C@H](C(=O)N2CCC[C@H]2C(=O)N[C@@H](CC(=O)O)C(=O)O)[C@@H](C)CC)NC(=O)[C@H](C2CCCCC2)NC(=O)[C@@H]2CCCN2C(=O)[C@@H]2CCCN2C(=O)[C@H](CC(C)C)NC(=O)[C@H](CO)NC(=O)[C@H](CCCNC(=N)N)NC(=O)[C@H](CO)NC1=O

Tests used:
[1] = target: Recombinant human MASP2 enzyme (fragment corresponding to amino acids 297-686, C-terminal His Tag) (human, UniProt O00187 297-686); test: cell-based or functional assay
Sequence of Recombinant human MASP2 enzyme (fragment corresponding to amino acids 297-686, C-terminal His Tag) (O00187 other isoform, or with tags, fused parts or gaps limits assumed): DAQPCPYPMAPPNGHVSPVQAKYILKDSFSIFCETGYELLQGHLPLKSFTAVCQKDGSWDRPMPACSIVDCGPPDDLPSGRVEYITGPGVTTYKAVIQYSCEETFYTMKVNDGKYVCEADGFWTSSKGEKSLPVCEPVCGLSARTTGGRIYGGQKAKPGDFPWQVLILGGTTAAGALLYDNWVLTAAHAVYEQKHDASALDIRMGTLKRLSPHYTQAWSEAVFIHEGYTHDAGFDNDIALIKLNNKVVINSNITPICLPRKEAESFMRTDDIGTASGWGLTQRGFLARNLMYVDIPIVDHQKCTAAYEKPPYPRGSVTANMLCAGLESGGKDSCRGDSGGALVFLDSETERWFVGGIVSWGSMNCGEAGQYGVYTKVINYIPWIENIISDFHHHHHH

[2] = target: T1, Recombinant human MASP1 enzyme (fragment corresponding to amino acids 297-699, C-terminal His Tag) (human, UniProt P48740 297-699); test: cell-based or functional assay
T1 sequence: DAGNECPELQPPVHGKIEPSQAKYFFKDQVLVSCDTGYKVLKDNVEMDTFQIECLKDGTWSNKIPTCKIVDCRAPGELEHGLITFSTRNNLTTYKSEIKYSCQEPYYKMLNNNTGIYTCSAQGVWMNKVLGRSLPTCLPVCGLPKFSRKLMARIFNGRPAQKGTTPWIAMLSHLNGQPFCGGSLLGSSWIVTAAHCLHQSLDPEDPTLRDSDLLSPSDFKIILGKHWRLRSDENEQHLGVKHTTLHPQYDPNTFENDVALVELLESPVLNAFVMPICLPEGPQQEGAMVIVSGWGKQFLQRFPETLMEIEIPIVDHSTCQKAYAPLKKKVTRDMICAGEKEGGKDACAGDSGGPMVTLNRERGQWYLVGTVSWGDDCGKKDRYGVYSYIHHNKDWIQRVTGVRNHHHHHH

Binder | human MASP2 IC50 [1] [nM] | human MASP1 IC50 [2] [nM]
B1 | 180 | 6.2
B2 | 170 | 6.1
B3 | 27 | 6.1
B4 | 13 | 6.5
B5 | 16 | 6.4
B6 | 120 | 6.6
B7 | 400 | 6.9
B8 | 65 | 6.4
B9 | 220 | 6.3
B10 | 410 | 6.5
B11 | 140 | 6.5
